Measurements as given in the supplement of paper PMC11316812.
± gives the standard deviation of the averaged measurements.

How the values were obtained:
[1] = system: MCF7; experiment: percentage of EdU-negative (G0-arrested) nuclei per well, 72 h; higher = more G0 arrest; settings: reference: sequence is the full UniProt precursor, the tested protein was the secreted form or ectodomain
[2] = system: hTERT-HMEC; experiment: as above; settings: reference: sequence is the full UniProt precursor, the tested protein was the secreted form or ectodomain
[3] = protein concentration 0.0225 µM
[4] = protein concentration 0.02275 µM
[5] = protein concentration 0.2275 µM
[6] = protein concentration 0.019635 µM
[7] = protein concentration 0.19635 µM
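Also: secreted proteins added to cultured cells, EdU pulse at the end, nuclei found by Hoechst imaging, EdU status from nuclear versus surrounding ring intensity ratio, PBS as neutral control.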

With “MGHRFLRGLLTLLLPPPPLYTRHRMLGPESVPPPKRSRSKLMAPPRIGTHNGTFHCDEALACALLRLLPEYRDAEIVRTRDPEKLASCDIVVDVGGEYDPRRHRYDHHQRSFTETMSSLSPGKPWQTKLSSAGLIYLHFGHKLLAQLLGTSEEDSMVGTLYDKMYENFVEEVDAVDNGISQWAEGEPRYALTTTLSARVARLNPTWNHPDQDTEAGFKRAMDLVQEEFLQRLDFYQHSWLPARALVEEALAQRFQVDPSGEIVELAKGACPWKEHLYHLESGLSPPVAIFFVIYTDQAGQWRIQCVPKEPHSFQSRLPLPEPWRGLRDEALDQVSGIPGCIFVHASGFIGGHRTREGALSMARATLAQRSYLPQIS [Q9HB07]” the “percentage of EdU-negative” value [1, 3] was 26.7 ± 1.3%, the “percentage of EdU-negative” value ([1]; protein concentration 0.225 µM) was 27.2 ± 0.95% and the “percentage of EdU-negative” value [2, 3] was 4.42 ± 0.079%. For the same sequence, the “percentage of EdU-negative” value ([2]; protein concentration 0.225 µM) was 11 ± 1.7%.

In the case of “MGIELLCLFFLFLGRNDHVQGGCALGGAETCEDCLLIGPQCAWCAQENFTHPSGVGERCDTPANLLAKGCQLNFIENPVSQVEILKNKPLSVGRQKNSSDIVQIAPQSLILKLRPGGAQTLQVHVRQTEDYPVDLYYLMDLSASMDDDLNTIKELGSRLSKEMSKLTSNFRLGFGSFVEKPVSPFVKTTPEEIANPCSSIPYFCLPTFGFKHILPLTNDAERFNEIVKNQKISANIDTPEGGFDAIMQAAVCKEKIGWRNDSLHLLVFVSDADSHFGMDSKLAGIVIPNDGLCHLDSKNEYSMSTVLEYPTIGQLIDKLVQNNVLLIFAVTQEQVHLYENYAKLIPGATVGLLQKDSGNILQLIISAYEELRSEVELEVLGDTEGLNLSFTAICNNGTLFQHQKKCSHMKVGDTASFSVTVNIPHCERRSRHIIIKPVGLGDALELLVSPECNCDCQKEVEVNSSKCHHGNGSFQCGVCACHPGHMGPRCECGEDMLSTDSCKEAPDHPSCSGRGDCYCGQCICHLSPYGNIYGPYCQCDNFSCVRHKGLLCGGNGDCDCGECVCRSGWTGEYCNCTTSTDSCVSEDGVLCSGRGDCVCGKCVCTNPGASGPTCERCPTCGDPCNSKRSCIECHLSAAGQAREECVDKCKLAGATISEEEDFSKDGSVSCSLQGENECLITFLITTDNEGKTIIHSINEKDCPKPPNIPMIMLGVSLAILLIGVVLLCIWKLLVSFHDRKEVAKFEAERSKAKWQTGTNPLYRGSTSTFKNVTYKHREKQKVDLSTDC”, the “percentage of EdU-negative” value [1, 3] is reported as 23.6 ± 0.48%, the “percentage of EdU-negative” value ([1]; protein concentration 0.225 µM) is reported as 28 ± 1.7% and the “percentage of EdU-negative” value [2, 3] is reported as 5.434 ± 0.051%. The “percentage of EdU-negative” value ([2]; protein concentration 0.225 µM) was 6.34 ± 1.4%.

“MGIGRSEGGRRGAALGVLLALGAALLAVGSASEYDYVSFQSDIGPYQSGRFYTKPPQCVDIPADLRLCHNVGYKKMVLPNLLEHETMAEVKQQASSWVPLLNKNCHAGTQVFLCSLFAPVCLDRPIYPCRWLCEAVRDSCEPVMQFFGFYWPEMLKCDKFPEGDVCIAMTPPNATEASKPQGTTVCPPCDNELKSEAIIEHLCASEFALRMKIKEVKKENGDKKIVPKKKKPLKLGPIKKKDLKKLVLYLKNGADCPCHQLDNLSHHFLIMGRKVKSQYLLTAIHKWDKKNKEFKNFMKKMKNHECPTFQSVFK [Q8N474]” was tested, and the “percentage of EdU-negative” value ([1]; protein concentration 0.008 µM) was 25.5 ± 1.6%, the “percentage of EdU-negative” value ([1]; protein concentration 0.08 µM) was 26.5 ± 2.3% and the “percentage of EdU-negative” value ([2]; protein concentration 0.008 µM) was 5.94 ± 0.1%. The “percentage of EdU-negative” value ([2]; protein concentration 0.08 µM) was 7.36 ± 1.1%.

For “MGILKLQVFLIVLSVALNHLKATPIESHQVEKRKCNTATCATQRLANFLVHSSNNFGAILSSTNVGSNTYGKRNAVEVLKREPLNYLPL”, the “percentage of EdU-negative” value [1, 4] was 26.1 ± 1.4%, the “percentage of EdU-negative” value [1, 5] was 26.8 ± 4.2% and the “percentage of EdU-negative” value [2, 4] was 4.22 ± 0.57%. For the same sequence, the “percentage of EdU-negative” value [2, 5] was 5.2 ± 0.82%.

“MGILSFLPVLATESDWADCKSPQPWGHMLLWTAVLFLAPVAGTPAAPPKAVLKLEPQWINVLQEDSVTLTCRGTHSPESDSIQWFHNGNLIPTHTQPSYRFKANNNDSGEYTCQTGQTSLSDPVHLTVLSEWLVLQTPHLEFQEGETIVLRCHSWKDKPLVKVTFFQNGKSKKFSRSDPNFSIPQANHSHSGDYHCTGNIGYTLYSSKPVTITVQAPSSSPMGIIVAVVTGIAVAAIVAAVVALIYCRKKRISALPGYPECREMGETLPEKPANPTNPDEADKVGAENTITYSLLMHPDALEEPDDQNRI” was tested, and the “percentage of EdU-negative” value [1, 6] was 25 ± 1.1%, the “percentage of EdU-negative” value [1, 7] was 25.9 ± 1.6% and the “percentage of EdU-negative” value [2, 6] was 4.58 ± 0.074%. The “percentage of EdU-negative” value [2, 7] was 5.06 ± 0.42%.

“MGIQGGSVLFGLLLVLAVFCHSGHSLQCYNCPNPTADCKTAVNCSSDFDACLITKAGLQVYNKCWKFEHCNFNDVTTRLRENELTYYCCKKDLCNFNEQLENGGTSLSEKTVLLLVTPFLAAAWSLHP” was tested, and the “percentage of EdU-negative” value [1, 3] was 28.2 ± 1.9%, the “percentage of EdU-negative” value ([1]; protein concentration 0.225 µM) was 25.8 ± 1% and the “percentage of EdU-negative” value [2, 3] was 5.4 ± 0.53%. The “percentage of EdU-negative” value ([2]; protein concentration 0.225 µM) was 5.24 ± 1.1%.

In the case of “MGKGDPKKPRGKMSSYAFFVQTCREEHKKKHPDASVNFSEFSKKCSERWKTMSAKEKGKFEDMAKADKARYEREMKTYIPPKGETKKKFKDPNAPKRPPSAFFLFCSEYRPKIKGEHPGLSIGDVAKKLGEMWNNTAADDKQPYEKKAAKLKEKYEKDIAAYRAKGKPDAAKKGVVKAEKSKKKKEEEEDEEDEEDEEEEEDEEDEDEEEDDDDE”, the “percentage of EdU-negative” value [1, 3] is reported as 23.1 ± 4.2%, the “percentage of EdU-negative” value ([1]; protein concentration 0.225 µM) is reported as 24.5 ± 0.87% and the “percentage of EdU-negative” value [2, 3] is reported as 5.16 ± 0.5%. For the same sequence, the “percentage of EdU-negative” value ([2]; protein concentration 0.225 µM) was 5.64 ± 0.066%.
